The results in this text go back to patent publication US20240043504A1 (published 2024).

Substitutions are numbered along the chain they refer to. Where “and” joins values, the source holds several entries; their conditions need not be identical. Equal values may be shown once.

Assay [1] has as its target receptor binding domain (RBD) portion of the SARS-CoV-2 Spike protein (amino acids Arg319-Phe541) ex (SARS-CoV-2).
The target in the next assay is SARS-CoV-2 RBD-hFc (SARS-CoV-2). Description: Luminex beads.

B1: mAb10913 (antibody, V domains shown)
VH: EVQLVESGGGLVQPGGSLRLSCAASGFTFRNYEMNWVRQAPGKGLEWVSYITSSGSTMYYADSVKGRFTISRDNAKNSLYLQMNSLRAEDTAVYYCARDGFYYYYAMDVWGQGTTVTVSS
VL: QSVLTQPPSVSAAPGQKVTISCSGSSSNIGNNYVSWYQQLPGTAPKLLIYDNNKRPSGIPDRFSGSKSGTSATLGITGLQTGDEADYYCGTWDSSLSVGRVFGTGTKVTVLG
Usually IC50 stands for the concentration needed to halve the response being measured. In turn, B1 registered an IC50 in assay [1] of 0.217 nM.

B2: mAb10913 (antibody, V domains shown)
VH: B1 VH
VL: B1 VL
For B2, the binding result with SARS-CoV-2 RBD-hFc is “binds”.

B3: mAb10932 (antibody, V domains shown)
VH: EVQLVESGGGLVQSGGSLRLSCAASGLTVSSNYMSWVRQAPGKGLEWVSVIYSGGSTFYSDSVKGRFTISRHNSKNTLYLQMNSLRAEDTAVYYCARARGDAFDIWGQGTMVTVSS
VL: not shown
With B3, in assay [1], the IC50 was 0.373 nM.

B4: mAb10954 (antibody, V domains shown)
VH: EVQLVESGGGLVQPGGSLRLSCAASGITVSSNYMSWVRQAPGKGLEWVSLIYSGGSTYYADSVKGRFTISRDNSKNTLYLQMNSLRVEDTAVYYCARDHGMAAAGYNYWGQGTLVTVSS
VL: DIQMTQSPSSLSASVGDRVTITCQASQDINKYLNWYQQKPGKAPKLLIYDASNLETGVPSRFSGSGSGTDFTFTINSLQPEDFATYFCQQYDNLPPAFGQGTKVEIKR
B4: the IC50 in assay [1] amounted to 0.0711 nM.

B5: mAb10936 (antibody, V domains shown)
VH: QVQLVESGGGVVQPGRSLRLSCAASGFTFRNYGMHWVRQAPGKGLEWVSVIWYDGSNRYYADSVKGRFTISRDTSKNTLYLQMNSLRAEDTAVYYCARDPPITGTTGGDAFDIWGQGTMVTVSS
VL: not shown
Regarding B5, in assay [1], the IC50 was 0.0875 nM and 0.071 nM.

B6: mAb10930 (antibody, V domains shown)
VH: EVQLVESGGGLVQPGRSLRLSCAASGFTFDDYAMYWVRQAPGKGLEWVSGISWNSGSIGYADSVKGRFTISRDNAKNSLYLQMNSLRAADTALYYCAKDKDWNSRGYYYYGMDVWGQGTTVTVSS
VL: not shown
As for B6, the IC50 in assay [1] is 0.282 nM.

B7: mAb11010 (antibody, V domains shown)
VH: QVQLVESGGGVVQPGRSLRLSCAASGFTFSSYGMHWVRQAPGKGLEWVAVISYDGSYKYYADSVKGRFTISRDNSKNTLYLQMNSLRAEDTAVYYCAIDGGTVTTIFDYWGQGTLVTVSS
VL: not shown
For the molecule B7, the binding result with SARS-CoV-2 RBD-hFc was “binds”.

B8: mAb10998 (antibody, V domains shown)
VH: EVQLVESGGGLVHPGGSLRLSCAASGLTVSSNYMSWVRQAPGKGLEWVSVIYSGGSTYYADSVKGRFTISRHNSKNTLFLQMNSLRAEDTAVYYCARDRPITGTTLDVWGQGTTVTVSS
VL: DIQMTQSPSSLFASVGDRVTITCRASQSISSYLNWYQQKPGKAPKLLIYAASSLQSGVPSRFSGSGSGTDFTLTISSLQPEDFAFYYCQQTYSTPPITFGQGTRLEIK
For the molecule B8, in the assay with SARS-CoV-2 RBD-hFc, the binding result was “binds”.

B9: mAb10956 (antibody, V domains shown)
VH: EVQLVESGGGLVQPGGSLRLSCAASGLTVSSNYMSWVRQAPGKGLEWVSVIYSGGSTFYADSVKGRFTISRDNSKNTLYLQMNSLRAEDTAVYYCARDLIKYGMDVWGQGTTVTVSS
VL: not shown
With B9, the binding result with SARS-CoV-2 RBD-hFc was “binds”.

B10: mAb10939 (antibody, V domains shown)
VH: B9 VH with S35N, A40V, T57K, A60V, D72H, A87P, A96T, L99A, I100Q, K101Y
VL: DIQMTQSPSSLSASVGDRVTITCRASQSISTYLHWYQQKPGEAPKLLIYAASSLQSGVPSRFSGSGSGTDFTLTISSLQPEDFATYYCQQSYSTPPEIFGQGTKLEIKR
With B10, the IC50 in assay [1] was 0.175 nM and 0.263 nM.

B11: mAb10914 (antibody, V domains shown)
VH: B9 VH with T28I, S31R, S35I, D72H, I100G, K101T, Y102G
VL: DIQLTQSPSFLSASVGDRVTITCWASQGISSYLAWYQQKPGKAPKLLIYAASTLQSGVPSRFSGSGSGTEFTLTISSLQPEDFATYYCQQLNSYPLTFGGGTKVEIKR
On to B11, for which, in the assay with SARS-CoV-2 RBD-hFc, the binding result was “binds”.

B12: mAb10957 (antibody, V domains shown)
VH: B9 VH with L27V, Y79F, A87I, I100G, K101P
VL: DIQLTQSPSFLSASVGDRVTITCRASQGISSYLAWYQQKPGKAPKLLIYAASTLQSGVPSRFSGSGSGTQFILTISSLQPEDFATYYCQQLNSYPGFTFGPGTKVDIKR
Consider B12, for which the binding result in the assay with SARS-CoV-2 RBD-hFc was “binds”.

B13: mAb10914 (antibody, V domains shown)
VH: B9 VH with T28I, S31R, S35I, D72H, I100G, K101T, Y102G
VL: B11 VL
B13 displayed a half-maximal inhibitory concentration (IC50) in assay [1] of 0.98 nM.

B14: mAb10955 (antibody, V domains shown)
VH: EVQLVESGGGLVQPGGSLRVSCAASGFTVSRNYMSWVRQAPGKGLEWVSVIYSGGSTFYADSVKGRFTISRDNSKNTLYLQMNSLRAEDTAIYYCARYIPRFDPWGQGTLVTVSS
VL: DIQMTQSPSSLSASVGDRVTITCQASQDISNYLNWFQQKPGRAPKLLIYDASNLETGVPSRFSGSGSGTDFTFTISSLQPEDIATYYCQQYDNLPITFGQGTRLEIKR
As for B14, the binding result with SARS-CoV-2 RBD-hFc was “binds”.

B15: mAb10935 (antibody, V domains shown)
VH: EVQLVESGGGLVQPGGSLRLSCAASGFTVSSNYMSWVRQAPGKGLEWVSLIYSGGSTYYADSVKGRFTISRHNSKNTLYLQMNSLRSEDTAVYYCARVPLGDYYYGMDVWGQGTTVTVSS
VL: B4 VL with N76S, F83I, F87Y, Y91S, P96L, A97T, Q100G
Turning to B15, in assay [1], the IC50 is 0.102 nM and 0.0694 nM.

B16: mAb10938 (antibody, V domains shown)
VH: EVQLVESGGGLVQPGGSLRLSCAVSGFTVSSNYMSWVRQAPGKGLEWVSLIYSGGSTFYADSVKGRFTISRHNSKNTLYLQMNSLRAEDTAVYYCAREGGYSYDYNYWGQGTLVTVSS
VL: B14 VL with S30R, F36Y, R42K, S65I
In the case of B16, the IC50 in assay [1] is 0.275 nM.

B17: mAb11004 (antibody, V domains shown)
VH: QVQLVESGGGVVQPGRSLRLSCVASGFTFSIYGMDWVRQAPGKGLEWVAVISYDGSNKYYADSVKGRFTISRDNSKNTLYLQMNSLRPEDTAVYYCAKDREAAADAFDIWGQGTMVTVSS
VL: DIQMTQSPSSVSASVGDRVTITCRASQGISSWLAWYQQKPGKAPKLLIYAASSLHSGVPSRFSGSGSGTDFTLTISSLQPEDFATYYCQQANSFRLTFGGGTKVEIK
In the case of B17, the binding result in the assay with SARS-CoV-2 RBD-hFc is recorded as “binds”.

B18: mAb11006 (antibody, V domains shown)
VH: EVQLVESGGGLVQPGGSLRLSCAASGFIVSRNYMSWVRQAPGKGLEWVSVIYSGGSTFYADSVKGRFTISRHNSKNTLYLQMNSLKAEDTAVYYCARELRGYFDYWGQGTLVTVSS
VL: DIQLTQSPSFLSASVGDRVTITCWASQGISSYLAWYQQKPGKAPKLLIYAASTLQSGVPSRFSGSGSGTEFTLTISSLQPEDFATYYCQLLNSYPYTFGQGTKLEIK
Take B18: the binding result in the assay with SARS-CoV-2 RBD-hFc was “binds”.

B19: mAb10915 (antibody, V domains shown)
VH: B18 VH with I28T, R31S, S35N, K86R, A87P, E98D, R100G
VL: not shown
In assay [1], B19 yielded an IC50 of 0.321 nM.

B20: mAb11008 (antibody, V domains shown)
VH: EVQLVESGGGLVQPGGSLRLSCAASGFTVSSNYMTWVRQAPGKGLEWVSVIYSGGSTFYADSVKGRFTISRHNSENTLYLQMNSLRAEDTAVYYCARDLAAAGTDYWGQGALVTVSS
VL: B18 VL with E81D, L90H, P95L
For the molecule B20, the binding result with SARS-CoV-2 RBD-hFc is recorded as “binds”.

B21: mAb10920 (antibody, V domains shown)
VH: QVQLVESGGGVVQPGRSLRLSCAASGFTFSYYGMHWVRQAPGKGLEWVAVIWYDGSNKFYADSVKGRFTISRDNSKNTLYLQMNSLRAEDTAVYYCAAARPGYYYGMDVWGQGTTVTVSS
VL: DIQMTQSPSSLSASVGDRVTITCRASQGISNYLAWFQQKPGKAPNSLIYAASSLQRGVPSKFSGSGSGTDFTLTISSLQPEDFATYYCQQYNSYPRTFGQGTKVEIKR
For B21, the IC50 in assay [1] was 0.338 nM and 0.139 nM.

B22: mAb10937 (antibody, V domains shown)
VH: QITLKESGPTLVKPTQTLTLTCTFSGFSLSTNVVGVGWIRQPPGKALEWLALIYWNDDKRYSPSLKSRLTITKDTSKNQVVLTMTNMDPVDTATYYCAHGPTGDYFDYWGQGTLVTVSS
VL: not shown
In turn, B22 came in with a half-inhibitory concentration (IC50) in assay [1] of 0.0649 nM.

B23: mAb10923 (antibody, V domains shown)
VH: QVQLVQSGAEVKKPGASVKVSCKASGYTFINYYIHWVRQAPGQGLEWMGWINPNSGGTNYAQKFQGRVTMTRDTSISTAYMELSRLRSDDTAVYYCAIITIFGVVTWFDPWGQGTLVTVSS
VL: not shown
Turning to B23, the 50% inhibitory concentration (IC50) in assay [1] was 0.149 nM and 0.184 nM.

B24: mAb10921 (antibody, V domains shown)
VH: EVQLVESGGGLVQPGGSLRLSCAASGITVSSNYMSWVRQAPGKGLEWVSVIYSGGSTFYADSVKGRFTISRHNSKNTLYLQMNSLRAEDTAVYYCARERNFDAFDIWGQGTMVTVSS
VL: B12 VL with L4M, F10S, L11V, Y32W, T53S, Q70D, I72T, L91A, Y94F, G96L
Consider B24, for which the half-maximal inhibitory concentration (IC50) in assay [1] was 0.433 nM and 0.507 nM.

B25: mAb11002 (antibody, V domains shown)
VH: EVQLVESGGGLVQPGGSLRLSCAASGFTVSSNYMSWVRQAPGKGLEWVSVIYSGGSTFYADSVKGRFTISRHNSKNTLYLQMNSLRAEDTAVYYCAREGYGMDVWGQGTTVTVSS
VL: not shown
For B25, in the assay with SARS-CoV-2 RBD-hFc, the binding result is on record as “binds”.
